Experimental data from the Immune Epitope Database (IEDB).

Legend:
[1] = biological target: HLA-A*02:01; experiment: IEDB peptide-MHC binding, purified MHC/competitive/radioactivity; ≥ and ≤ were set here for values at or beyond the usual limits of such assays; conditions: source organism: Trypanosoma cruzi
[2] = biological target: HLA-A*02:01; experiment: IEDB peptide-MHC binding, purified MHC/competitive/radioactivity; filed as Kd, often an IC50 or EC50 that approximates it; ≥ and ≤ were set here for values at or beyond the usual limits of such assays; conditions: source organism: Trypanosoma cruzi

For FTLVAPVSI, the IC50 [1] was 363 nM.
WIIKNSWTA was tested, and the IC50 [1] was 186 nM.
ALKNNGKVV was tested, and the Kd [2] was no less than 43.4 µM.
In the case of AANPHATFGV, the IC50 [1] is reported as 2950 nM.
For FTSAVLLLV, the IC50 [1] was 10 nM.
Sequence FANSKFTLVA has a Kd [2] of no less than 43.4 µM.
WAFSAIGNV showed a Kd [2] of 16.7 µM.
GLTFKGPGA gave a Kd [2] of no less than 43.4 µM.
With VMACLVPAA the IC50 [1] was 10 nM.
For MTSCVSEQL, the IC50 [1] was 348 nM.
Work on FLAGHPLTNL yielded an IC50 [1] of 14 nM.
Work on ALSLAAVLV yielded an IC50 [1] of 112 nM.
For YATVEVPSL, the Kd [2] was 5.5 µM.
For MMSCSSEAT, the IC50 [1] was 1170 nM.
Work on KALETDVPA yielded a Kd [2] of no less than 43.4 µM.
Sequence LMNNAFEWIV has an IC50 [1] of 56 nM.
With RVFTSAVLL the IC50 [1] was 661 nM.
With NVLLYNRLL the Kd [2] was 6.03 µM.
LAAVLVVMA gave a Kd [2] of no less than 22.8 µM.
VAVNGPVAV gave a Kd [2] of no less than 28.2 µM.
For FTDNKSCVSL, the Kd [2] was 14.4 µM.
WLSDCGEAL gave an IC50 [1] of 228 nM.
GLMNNAFEWI gave an IC50 [1] of 175 nM.
GVQGGFVSA showed a Kd [2] of no less than 43.4 µM.
With AMALIGDSTV the IC50 [1] was 148 nM.
LVYVNGVVV gave a Kd [2] of 9.07 µM.
CLLTTSGVSA showed a Kd [2] of 10.4 µM.
With QMDYSNGLFV the IC50 [1] was 61 nM.
Sequence WIVQENNGA has a Kd [2] of 12.8 µM.
For WADEYLCVNA, the Kd [2] was no less than 43.4 µM.
CLVPAATASL gave an IC50 [1] of 2540 nM.
For AVLVVMACL, the IC50 [1] was 4150 nM.
Sequence QMSCTDAACI has a Kd [2] of no less than 28.2 µM.
SVPLNQCNWL was tested, and the Kd [2] was no less than 28.2 µM.
For LMNNAFEWI, the IC50 [1] was 395 nM.
In the case of YVNGVVVATV, the IC50 [1] is reported as 466 nM.
With LLGLWGTAA the Kd [2] was 6.26 µM.
Work on LTNLSEQMLV yielded an IC50 [1] of 3190 nM.
In the case of GLLLLGLWGT, the IC50 [1] is reported as 62 nM.
RLLSPTTIV gave an IC50 [1] of 290 nM.
For SIHVTVSNV, the IC50 [1] was 3610 nM.
With VMMSCSSEA the IC50 [1] was 55 nM.
